Assay results: US20160002338A1 (Hoffmann-La Roche, published 2016)

Experiments:
[1] = target: T1, human recombinant HER2 ECD (human, UniProt P04626 23-652); test: SPR Biacore T100, antibody captured, 25 C
T1 construct: 69.6 kDa
Method: (§1) A CM5 series sensor was mounted into the system and was normalized in HBS-ET buffer (10 mM HEPES pH 7.4, 150 mM NaCl, 3 mM EDTA, 0.005% w/v Tween 20) according to the manufacturer's instructions. The sample buffer was the system buffer supplemented with 1 mg/ml CMD (Carboxymethyldextran, Sigma #86524). The system operated at 25° C. 6500 RU RAM-Fcγ (relative units of Fcγ-fragment RamIgG, GE Healthcare) were immobilized according to the manufacturer's instructions using EDC/NHS chemistry on all four flow cells. The sensor was deactivated using 1M ethanolamine.
(§2) Analytes in solution were injected at different concentration steps of 0 nM, 1.1 nM, 3.7 nM, 11.1 nM, 33.1 nM and 90 nM for 3.5 min. The dissociation was monitored for 15 min. Where possible, kinetic signatures were evaluated according to a Langmuir fit.

[2] = target: T2, HER4 ECD-HRG complex (human, UniProt Q15303 26-651); test: SPR Biacore T100, antibody captured, 25 C
T2 construct: HER4 ECD preincubated with a 5-fold molar excess of Heregulin; also called HER-4-ECD-RG
T2 sequence 1: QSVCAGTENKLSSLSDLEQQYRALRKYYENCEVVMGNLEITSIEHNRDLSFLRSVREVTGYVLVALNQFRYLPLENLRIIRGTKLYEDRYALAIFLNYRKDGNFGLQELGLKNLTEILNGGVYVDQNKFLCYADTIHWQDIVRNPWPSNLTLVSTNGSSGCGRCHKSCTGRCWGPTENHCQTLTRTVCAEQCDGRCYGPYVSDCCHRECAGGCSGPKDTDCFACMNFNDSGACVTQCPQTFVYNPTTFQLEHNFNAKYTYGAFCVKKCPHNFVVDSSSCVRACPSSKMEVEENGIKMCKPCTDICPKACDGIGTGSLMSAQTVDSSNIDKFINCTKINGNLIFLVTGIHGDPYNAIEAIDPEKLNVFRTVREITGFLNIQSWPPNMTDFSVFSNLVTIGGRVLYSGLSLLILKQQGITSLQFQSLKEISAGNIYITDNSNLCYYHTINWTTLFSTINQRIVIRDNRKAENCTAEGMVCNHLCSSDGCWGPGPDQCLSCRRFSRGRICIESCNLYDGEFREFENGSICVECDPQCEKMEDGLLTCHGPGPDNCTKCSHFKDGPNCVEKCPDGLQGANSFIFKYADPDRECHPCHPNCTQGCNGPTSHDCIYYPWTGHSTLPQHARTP
T2 sequence 2: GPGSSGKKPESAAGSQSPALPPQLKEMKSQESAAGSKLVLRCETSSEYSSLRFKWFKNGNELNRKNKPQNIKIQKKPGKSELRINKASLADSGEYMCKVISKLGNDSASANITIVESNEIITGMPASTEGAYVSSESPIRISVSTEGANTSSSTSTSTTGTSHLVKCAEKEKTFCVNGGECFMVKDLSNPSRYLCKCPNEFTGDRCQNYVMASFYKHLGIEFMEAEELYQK
Method: as §1, §2

[3] = target: T3, human Heregulin fragment (HRG) (human); test: SPR Biacore T100, antibody captured, 25 C
T3 construct: also called Heregulin beta (HRG)
T3 chain: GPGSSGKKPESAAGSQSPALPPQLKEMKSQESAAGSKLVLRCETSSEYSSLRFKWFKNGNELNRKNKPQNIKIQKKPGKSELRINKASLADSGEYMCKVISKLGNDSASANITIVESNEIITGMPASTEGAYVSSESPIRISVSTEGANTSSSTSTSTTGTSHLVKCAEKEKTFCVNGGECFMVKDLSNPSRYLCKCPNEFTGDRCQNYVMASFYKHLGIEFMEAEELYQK
Method: as §1, §2

[4] = target: T4, human recombinant HER4 ECD (human, UniProt Q15303 26-651); test: SPR Biacore T100, antibody captured, 25 C
T4 construct: also called full length Her4 ECD
T4 sequence: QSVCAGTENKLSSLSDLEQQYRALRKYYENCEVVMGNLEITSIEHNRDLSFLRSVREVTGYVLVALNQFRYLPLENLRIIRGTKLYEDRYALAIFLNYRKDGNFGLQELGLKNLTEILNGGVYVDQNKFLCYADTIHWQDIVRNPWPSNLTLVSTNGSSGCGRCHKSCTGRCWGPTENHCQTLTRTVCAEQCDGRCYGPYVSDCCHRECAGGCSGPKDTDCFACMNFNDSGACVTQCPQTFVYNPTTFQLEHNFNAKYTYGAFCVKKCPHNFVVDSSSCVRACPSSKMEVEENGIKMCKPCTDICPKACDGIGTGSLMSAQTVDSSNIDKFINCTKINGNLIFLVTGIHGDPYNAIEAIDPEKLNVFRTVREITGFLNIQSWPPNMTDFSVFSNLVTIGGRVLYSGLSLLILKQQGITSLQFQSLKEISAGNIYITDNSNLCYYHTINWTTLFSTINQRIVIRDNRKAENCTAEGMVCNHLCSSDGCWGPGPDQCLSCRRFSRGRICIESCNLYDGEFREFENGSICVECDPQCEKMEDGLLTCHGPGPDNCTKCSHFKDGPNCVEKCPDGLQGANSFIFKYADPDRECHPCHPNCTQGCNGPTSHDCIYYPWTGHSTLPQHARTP
Method: as §1, §2

[5] = target: T5, human recombinant HER3 ECD (human, UniProt P21860 20-643); test: SPR Biacore T100, antibody captured, 25 C
T5 construct: 68 kDa; also called human-Her3-ECD; full length Her3 ECD
Method: as §1, §2

[6] = target: T6, HER3 ECD-HRG complex (human, UniProt P21860 20-643); test: SPR Biacore T100, antibody captured, 25 C
T6 construct: also called Heregulin/Her-3 ECD
Method: as §1, §2

[7] = target: T2, HER4 ECD-HRG complex; test: SPR Biacore T200, antibody captured, 25 C
Method: (§3) A Biacore T200 instrument (GE Healthcare) was mounted with a CM5 series sensor. The sensor was normalized in HBS-ET buffer (10 mM HEPES pH 7.4, 150 mM NaCl, 3 mM EDTA, 0.05% w/v Tween 20) according to the manufacturer's instructions. The sample buffer was the system buffer supplemented with 1 mg/ml CMD (Carboxymethyldextran, Sigma #86524). The system operated at 25° C. 6500 RU RAM-Fey (relative units of Fey-fragment RamIgG, GE Healthcare) were immobilized according to the manufacturer's instructions using amine coupling EDC/NHS chemistry on all four flow cells. The sensor was deactivated using 1M ethanolamine. […] Concentration dependent kinetics were measured. […] All analytes were injected for 5 min association time and 10 min dissociation time at 100 μl/min flow rate. The sensor capture system was regenerated by a 3 min injection at 10 μl/min of 10 mM glycine pH 1.7. Where possible kinetic data was evaluated using the Biacore T200 evaluation software.

[8] = target: T7, TtSlyDcas; test: SPR Biacore T200, antibody captured, 25 C
T7 construct: control scaffold without insert; N-terminal Met may be present or not
T7 chain: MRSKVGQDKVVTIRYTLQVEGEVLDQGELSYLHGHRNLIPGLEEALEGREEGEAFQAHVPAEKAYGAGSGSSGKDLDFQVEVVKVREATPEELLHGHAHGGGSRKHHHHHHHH
Method: as §3

[9] = target: T4, human recombinant HER4 ECD; test: SPR Biacore T200, antibody captured, 25 C
Method: as §3

[10] = target: T5, human recombinant HER3 ECD; test: SPR Biacore T200, antibody captured, 25 C
Method: as §3

[11] = target: T6, HER3 ECD-HRG complex; test: SPR Biacore T200, antibody captured, 25 C
Method: as §3

T6 sequence (P21860 20-643 limits assumed, one chain of several): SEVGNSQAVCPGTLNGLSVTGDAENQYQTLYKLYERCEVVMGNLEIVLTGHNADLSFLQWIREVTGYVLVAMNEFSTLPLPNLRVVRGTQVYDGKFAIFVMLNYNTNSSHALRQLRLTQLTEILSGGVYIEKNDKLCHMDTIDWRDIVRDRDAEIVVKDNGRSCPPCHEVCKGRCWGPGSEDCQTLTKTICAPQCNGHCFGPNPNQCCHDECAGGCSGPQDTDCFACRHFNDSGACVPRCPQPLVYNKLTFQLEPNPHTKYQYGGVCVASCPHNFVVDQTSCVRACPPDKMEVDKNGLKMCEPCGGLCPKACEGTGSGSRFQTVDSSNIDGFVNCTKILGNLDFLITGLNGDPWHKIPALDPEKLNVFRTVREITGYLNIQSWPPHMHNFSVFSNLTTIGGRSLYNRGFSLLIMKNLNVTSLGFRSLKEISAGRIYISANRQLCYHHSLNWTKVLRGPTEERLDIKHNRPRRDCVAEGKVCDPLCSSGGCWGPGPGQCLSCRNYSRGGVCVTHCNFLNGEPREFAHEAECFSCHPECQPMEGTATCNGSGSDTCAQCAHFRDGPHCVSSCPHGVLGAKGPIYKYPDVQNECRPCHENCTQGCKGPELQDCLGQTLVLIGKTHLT
T5 sequence (P21860 20-643): as the sequence (P21860 20-643 limits assumed, one chain of several) above

B1: anti-HER3/HER4 antibody M-05-74 (antibody, V domains shown)
VH: QVQLQQSGAELAKPGASVKMSCKTSGYTLTDYWIHWVKQRPGQGLEWIGYINPYTGYTESNQKFKDKATLTADKSSNTAYIQLSSLTSEDSAVYYCARPYYYGDYWGQGTTLTVSS
VL: QIVLTQSPAIMSASPGERVTITCSASSSVSYMHWFQQKPGTSPKLLIYSTSNLASGVPARFSGSGSGTSYSLTISRMEAEDAATYYCQQRSSYPFTFGSGTKLEIK
notes: murine monoclonal antibody from hybridoma (supernatant or purified); also called M-074; M-5-74
- binding result [1]: no binding (tested: 90 nM)
- Binding Late BL [2]: 349 RU
- Molar Ratio MR [2]: 0.6
- ratio MR (+Heregulin)/MR (-Heregulin) [2]: 6
- ratio ka (Her4-ECD-HRG)/ka (Her4-ECD) [2]: 23.9
- binding result [3]: no binding (tested: 90 nM)
- Binding Late BL [4]: 27 RU
- Molar Ratio MR [4]: 0.1
- Binding Late BL [5]: 70 RU
- Molar Ratio MR [5]: 0.2
- Binding Late BL [6]: 160 RU
- Molar Ratio MR [6]: 0.6
- ratio MR (+Heregulin)/MR (-Heregulin) [6]: 3
- ratio ka (Her3-ECD-HRG)/ka (Her3-ECD) [6]: 4.85
- Molar Ratio MR [7]: 0.8
- Molar Ratio MR [8]: 0
- binding result [8]: no binding (tested: 90 nM)
- Molar Ratio MR [9]: 0.1
- Molar Ratio MR [10]: 0.1
- Molar Ratio MR [11]: 0.8
